IntAct's records for PubMed 30902834

B1: Protein-arginine N-acetylglucosaminyltransferase SseK3 (Salmonella typhimurium (strain SL1344)), P0DUJ7 (parent)
chain: MFSRVRGFLSCQNYSHTATPAITLPSSGSANFAGVEYPLLPLDQHTPLLFQWFERNPSRFGENQIPIINTQQNPYLNNIINAAIIEKERTIGVLVDGNFSAGQKKALAKLEKQYENIKVIYNSDLDYSMYDKKLSDIYLENIAKIEAQPANVRDEYLLGEIKKSLNEVLKNNPEESLVSSHDKRLGHVRFDFYRNLFLLKGSNAFLEAGKHGCHHLQPGGGCIYLDADMLLTGKLGTLYLPDGIAVHVSRKGNSMSLENGIIAVNRSEHPALKKGLEIMHSKPYGDPYIDGVCGGLRHYFNCSIRHNYEEFCNFIEFKHEHIFMDTSSLTISSWR
partner: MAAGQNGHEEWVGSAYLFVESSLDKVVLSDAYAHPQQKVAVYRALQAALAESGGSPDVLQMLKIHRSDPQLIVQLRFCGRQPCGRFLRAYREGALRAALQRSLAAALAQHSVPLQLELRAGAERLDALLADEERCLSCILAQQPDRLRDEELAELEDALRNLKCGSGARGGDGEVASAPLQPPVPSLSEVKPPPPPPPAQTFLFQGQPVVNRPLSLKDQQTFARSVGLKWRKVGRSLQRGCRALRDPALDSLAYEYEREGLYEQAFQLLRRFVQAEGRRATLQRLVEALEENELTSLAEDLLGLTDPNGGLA
B2: Protein-arginine N-acetylglucosaminyltransferase SseK3 (Salmonella typhimurium (strain SL1344)), P0DUJ7 (parent)
chain: B1 chain

Variants of: B1
Conditions: with tradd_human TRADD

Variant	effect of a mutation on the interaction
E258A	disrupting interaction

Variants of: B2
Conditions: with tr10b_human TNFRSF10B

Variant	effect of a mutation on the interaction
E258A	disrupting interaction
